Assay results from patent US20260116996A1 (REGENTS OF THE UNIVERSITY OF MINNESOTA, published 2026).

T1: recombinant human serpinB13 (human, UniProt Q9UIV8 1-391)
T1 construct: The baculovirus-made protein (GenScript) was used for panning, ELISA and the cathepsin L assay; In the Luminex assay human serpinB13 was V5-His tagged and came from 293 cell lysates; also called rhB13
T1 sequence (looked up): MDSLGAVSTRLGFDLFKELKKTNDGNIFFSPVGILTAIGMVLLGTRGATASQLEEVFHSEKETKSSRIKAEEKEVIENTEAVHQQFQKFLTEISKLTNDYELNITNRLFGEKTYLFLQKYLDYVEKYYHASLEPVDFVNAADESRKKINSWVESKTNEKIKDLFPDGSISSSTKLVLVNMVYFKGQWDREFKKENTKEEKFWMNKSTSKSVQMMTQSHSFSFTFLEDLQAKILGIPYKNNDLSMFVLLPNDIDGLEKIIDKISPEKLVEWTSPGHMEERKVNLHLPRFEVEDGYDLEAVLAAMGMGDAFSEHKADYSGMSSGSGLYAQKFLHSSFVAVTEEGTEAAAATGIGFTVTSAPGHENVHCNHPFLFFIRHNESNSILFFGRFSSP

T2: human serpinB12 (human, UniProt Q96P63 1-405)
T2 construct: Luminex antigen captured from a 293 cell lysate; not shown: V5-His tag of the pcDNA3.1 Directional V5-His-TOPO vector
T2 sequence (looked up): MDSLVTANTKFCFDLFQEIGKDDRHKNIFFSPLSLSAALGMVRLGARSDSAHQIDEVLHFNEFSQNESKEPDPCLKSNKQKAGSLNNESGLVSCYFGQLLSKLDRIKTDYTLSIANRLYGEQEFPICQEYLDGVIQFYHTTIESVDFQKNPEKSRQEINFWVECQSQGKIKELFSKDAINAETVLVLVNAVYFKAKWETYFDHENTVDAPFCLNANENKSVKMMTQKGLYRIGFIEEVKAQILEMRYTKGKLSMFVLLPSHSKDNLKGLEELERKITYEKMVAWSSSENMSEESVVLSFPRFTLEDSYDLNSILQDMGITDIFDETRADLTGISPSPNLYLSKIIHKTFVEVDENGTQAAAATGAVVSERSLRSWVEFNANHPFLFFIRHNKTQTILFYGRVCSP


Assays:
[1] = molecular target: T1, recombinant human serpinB13; assay: Luminex bead assay, beads coated with human serpinB13, antibody at 1.0 µg/mL, background (mean of Gfp and Scgn beads) subtracted
Experimental: (§1) The latter was determined as the average antibody binding to Luminex beads coated with Gfp and Scgn control antigens. Similar data were obtained for antigen binding of Fab fragments of these antibodies (data not shown).
(§2) Luminex assay. Luminex-based technology was used to measure serpinB13 AA in human samples. Initially, the Luminex beads were precoated with serpinB13, Gfp and Scgn, using precleared lysates of 293 cells that had been transfected with individual cDNAs. Biotinylated mouse anti-human K and 2 chain mAbs (BD Biosciences) (dilution 1:300) and streptavidin (Invitrogen) (dilution 1:200) were used as secondary reagents to measure human serum binding activity to individual antigens. The data were expressed as fluorescence intensity (F.I.) due to serum binding activity in the presence of beads precoated with serpinB13 and after subtracting the average F.I. due to serum binding activity in the presence of beads precoated with control proteins, Gfp and Scgn (e.g. F.I.^B13-[F.I.^GFP+F.I.^Segn]/2). The samples were evaluated based on the level of F.I. and the degree of inhibition of binding to serpin-B13 coated beads with soluble serpinB13 (2.5 μg/mL), compared with the bovine serum albumin (BSA). […] All samples were run blind on three independent occasions. Subjects with serum samples that produced a positive results three times were considered positive. Subjects with serum samples that produced a negative result on at least one occasion were considered negative.
(§3) To determine whether anti-serpin activity is specific, binding of three human recombinant antibodies to serpinB13 was examined for potential cross-reactivity with other clade B serpins. Binding to the beads conjugated with Gfp and Scgn was used to subtract the background and the assay was developed using the same reagents as those described above for measuring serpinB13 AA in serum samples.

[2] = molecular target: T2, human serpinB12; assay: Luminex bead assay, beads coated with human serpinB12, background (Gfp and Scgn beads) subtracted
Experimental: as §1, §2, §3

binding result [1] | binding result [2] | Binder
binds | no binding (tested: 1.0 µg/mL) | recombinant fully human anti-serpinB13 antibody Clone 1 (antibody, human IgG1, kappa, V domains shown, also called mAb1; mAbs1) VH: QVQLQESGGGVVQPGRSLRLSCAASGFTFSSYGMHWVRQAPGKGLEWVAVISYDGSNKYYADSVKGRFTISRDNSKNTLYLQMNSLRAEDTAVYYCARDLGAVIAVAGTSTPYNWFDPWGQGTLVTVSS VL: DVVMTQSPLSLPVTPGEPASISCRSRQSLLHSNGHNYLGWYLQKPGQSPQLLIYLASIRASGIPDRFSGSGSGTDFTLKISRVEAEDVGVYYCMQALQTPYTFGQGTKLEIKR
binds | no binding (tested: 1.0 µg/mL) | recombinant fully human anti-serpinB13 antibody Clone 3 (antibody, human IgG1, kappa, V domains shown, also called mAb3; CLONE3-H(m1) / CLONE3-L(m1)) VH: QVQLQQWGAGLLKPSETLSLTCAVYGGSFSGYYWSWIRQPPGKGLEWIGEINHSGSTNYNPSLKSRVTISVDTSKNQFSLKLSSVTAADTAVYYCARRYCSGGSCYLVGTGSELDYWGQGTLVTVSS VL: DIQMTQSPSTLSASVGDRVTITCRASQSISSWLAWYQQKPGKAPKLLIYKASSLEIGVPSRFSGSGYGTEFTLTISSLQPDDFATYYCLQYSTHSTFGQGTRVEIKR
binds | no binding (tested: 1.0 µg/mL) | recombinant fully human anti-serpinB13 antibody Clone 2 (antibody, human IgG1, kappa, V domains shown, also called mAb2; CLONE2-H(m1) / CLONE2-L(m1)) VH: QMQLVQSGGGVVRPGGSLRLSCAASGFTFDDYGMSWVRQAPGKGLEWVSGINWNGGSTGYADSVKGRFTISRDNAKNSLYLQMNSLRAEDTALYYCARESSMTTVTTYLLREVGVGLDFDYWGQGTLVTVSS VL: ETTLTQSPGTLSLSPGERATLSCRASQTVSGSYLAWYQQKPGQPPRLLIYGASSRATGIPDRFSGSGSGTDFTLTISRLEPEDFAVYYCQDYGSSRTFGQGTKVELKR
